In US20130065819A1 one finds decrease in Tat driven transactivation of the HIV LTR/TAR luciferase reporter in HeLa cells data, which are given here for one substance.

This assay deals with HIV Tat transcription factor (HIV). Nature of the assay: cell-based or functional assay.

“human TOE1 (Target of Egr1) (from UniProt Q96GM8 1-510)” came in with a decrease in Tat driven transactivation of the HIV LTR/TAR luciferase reporter in HeLa cells of 50 to 80%.
